The source of these data is paper PMC5686351, “Tudor-domain protein PHF20L1 reads lysine methylated retinoblastoma tumour suppressor protein” (Cell Death and Differentiation, 2017).

Where no end group is shown, it is not given here. The star is where a group is joined. Biotin = O=C1N[C@H]2[C@H](CS[C@H]2CCCCC(=O)*)N1

First the molecules themselves.
B2: RbK810me1 peptide (biotin-GNIYISPLK[me]SPYKISEG) (peptide)
peptide: Biotin-GNIYISPLK(Me)SPYKISEG
notes: retinoblastoma protein (pRb), stretch around K810, K810 mono-methylated; also called mono-methylated K810 pRb peptide; biotinylated RbK810me1; source: synthetic peptide

Test [1] concerns the target B2. Description: BLI; peptides immobilised; His-PHF20L1 tudor 1 or full-length His-PHF20L1 in seven 2.5-fold dilutions from 200 μM; 250 s association, 250 s dissociation. To be noted: both partners purified. Background: Biolayer interferometry detects binding as a change in optical thickness at a sensor tip.
Another test concerns the target T1, His-PHF20L1 tudor 1 (UniProt A8MW92 11-71).
T1 construct: PHD-finger protein 20-like 1 (PHF20L1), tudor 1 domain; the GST construct of tudor 1 is 1-74; also called pET28a-PHF20L1 tudor 1; source: E. coli BL21 (DE3), purified
T1 sequence (looked up): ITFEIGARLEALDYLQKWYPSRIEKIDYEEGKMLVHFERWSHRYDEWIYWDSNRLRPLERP
The description is as above. The settings on record: both partners purified.

B1: His-PHF20L1 (full length) (natural protein)
chain: MSKKPPNRPGITFEIGARLEALDYLQKWYPSRIEKIDYEEGKMLVHFERWSHRYDEWIYWDSNRLRPLERPALRKEGLKDEEDFFDFKAGEEVLARWTDCRYYPAKIEAINKEGTFTVQFYDGVIRCLKRMHIKAMPEDAKGQFLFQVKSQHPLSWCCPIDPAGSCNQSMGSEDWIALVKAAAAAAAKNKTGSKPRTSANSNKDKDKDERKWFKVPSKKEETSTCIATPDVEKKEDLPTSSETFVGLHVENVPKMVFPQPESTLSNKRKNNQGNSFQAKRARLNKITGLLASKAVGVDGAEKKEDYNETAPMLEQV
As usually defined, the Kd is the concentration at which binding is half-saturated. In test [1], B1 showed a Kd of 34 µM.
Regarding B2, the Kd in the test with His-PHF20L1 tudor 1 was 28 µM.
